The data set is described as follows: protein stability index of a GFP-peptide fusion (GPS, HEK-293T) (PSI 1-6); higher = more stable.
[1] abbreviates: treatment: DMSO, c terminus: a fixed tail appended.
Setting [2] is: treatment: MLN4924 1 uM, 8 h, c terminus: a fixed tail appended.
Where [3] appears, read: treatment: DMSO, c terminus: native.
[4] abbreviates: treatment: MLN4924 1 uM, 8 h, c terminus: native.

± gives the standard deviation.
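Further: 24-mer peptide tiles fused after GFP, lentivirally expressed, FACS-sorted into six equal bins by GFP/DsRed ratio, decoded by Illumina sequencing, PSI is the read-weighted mean bin number.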

As to GLSESSGPHTISNQNNYRLLSCGK [ACSBG2], the protein stability index runs as follows: under setting [1], 4.55 ± 0.41; under setting [2], 4 ± 0.28.
As to GLSSVSPSHLLLPPDTVSRTGLEK [SPDEF], the protein stability index stood at 4.52 ± 0.23 under setting [1] and 4.33 ± 0.2 under setting [2].
The sequence GNGRPGRPSQYRPDGLRSGDGVPP [LCOR] had a protein stability index under setting [1] of 4.59 ± 0.31 and a protein stability index under setting [2] of 4.79 ± 0.2.
For GNNPNGREAKMICFKSVAKTPYDT [ELOA2], the protein stability index runs as follows: under setting [1], 3.84 ± 0.43; under setting [2], 3.93 ± 0.3.
As to GNQLQLNQHCLDTAFNFFKMAVSR [BRF1], the protein stability index is, setting by setting: under setting [1], 2.25 ± 0.36; under setting [2], 1.96 ± 0.28.
On the same counts, the results for GPDGHLPAVATLCDLFDREIVVTI [ESRRA] are 3.01 ± 0.7 and 2.91 ± 0.41.
Regarding GPGDGPPEIAQNFSAPDPPRPRPV [SMTNL2], the protein stability index by setting is: under setting [1], 5.05 ± 0.19; under setting [2], 5.03 ± 0.24.
GPMPMSMPNVMTGTMGMAPLGNTP [CLINT1]: the protein stability index by setting is: under setting [1], 4.03 ± 0.21; under setting [2], 4.02 ± 0.31.
Take GPSLVPGKTPTVRAALICLTLVLV [CD207]: the protein stability index was determined as 2.28 ± 0.44 under setting [1] and 2.73 ± 0.62 under setting [2].
For GQLDEKEKDLVGLAQIAEVLEMFD [RHOBTB1], the protein stability index worked out at 3.4 ± 0.37 under setting [1] and 3.61 ± 0.58 under setting [2].
For the sequence GQTSGAREPPQAVSIKEAAGSSNL [VENTX], the protein stability index was determined as 5.26 ± 0.26 under setting [1] and 5.15 ± 0.25 under setting [2].
Take GRGDEASEEGQNGSSPKSKTKWTK [ADD1]: the protein stability index is, setting by setting: under setting [1], 5.22 ± 0.16; under setting [2], 5.36 ± 0.36.
On to GRTENGALAPKQELPSALESHEVP [ZNF24], for which the protein stability index is, setting by setting: under setting [1], 5.24 ± 0.1; under setting [2], 5.27 ± 0.086.
With GSAPPRATPGGGTGEAARPHKGLN [PCDHGC5], the protein stability index runs as follows: under setting [1], 5.19 ± 0.34; under setting [2], 5.26 ± 0.32.
With GSARYDFSHEILRDEESFFGERRI [ALKBH7], the protein stability index by setting is: under setting [1], 3.75 ± 0.29; under setting [2], 3.71 ± 0.5.
GSLKSVEVREPALRPAKRELRGAE [SPSB4] had a protein stability index under setting [1] of 4.98 ± 0.37 and a protein stability index under setting [2] of 5.03 ± 0.14.
As for GSNDRVQGVISQLEDTCKTIEECC [TRIM55], the protein stability index turned out to be 4.71 ± 0.098 under setting [1] and 4.77 ± 0.31 under setting [2].
Consider GSNYANFELDLGKKVLNLLKGAFP [PTPN9], for which the protein stability index by setting is: under setting [1], 2.29 ± 0.42; under setting [2], 2.12 ± 0.35.
Regarding GSRLCLYEDGTELTEDYFPSVPDN [DFFB], the protein stability index was 4.44 ± 0.44 under setting [1] and 4.66 ± 0.45 under setting [2].
Consider GSVADTVARVLRGCLENMPEADCI [PLK2], for which the protein stability index by setting is: under setting [1], 2.88 ± 0.4; under setting [2], 2.94 ± 0.33.
As for GTPMALIVISYIHVAAAVLRIRSV [OR3A1], the protein stability index worked out at 3.16 ± 0.48 under setting [1] and 3.24 ± 0.074 under setting [2].
Regarding GTPTSHVYMFKNGSGDSGDSSEEE [LYSMD4], the protein stability index worked out at 5.37 ± 0.4 under setting [1] and 5.39 ± 0.28 under setting [2].
As to GYDHLWDETLSSSHQKCPQLGGPE [PLEKHN1], the protein stability index under setting [1] is 4.19 ± 0.3 and the protein stability index under setting [2] amounted to 4.31 ± 0.32.
In turn, GYKSNQVRGLYDFYLPREELWIYN [KLHDC2] showed a protein stability index under setting [1] of 2.44 ± 0.16 and a protein stability index under setting [2] of 1.98 ± 0.17.
On the same counts, the results for GYPTYKEKVKKRPGGRPEVIYNYV [BTBD10] are 2.41 ± 0.16 and 2.85 ± 0.33.
Consider GYREDNIPQLEDVSNFLKERTGFS [TPH1], for which the protein stability index is 3.75 ± 0.24 under setting [1] and 3.99 ± 0.42 under setting [2].
HARTHPQTALLESSCENKRADLVF [MATN2]: the protein stability index is 4.09 ± 0.46 under setting [1] and 4.02 ± 0.19 under setting [2].
As for HDTEIRKVHMKDVMSALWVSGLDS [GAN], the protein stability index runs as follows: under setting [1], 2.78 ± 0.29; under setting [2], 2.75 ± 0.4.
Consider HFSFNVKFYPPDPAQLSEDITRYY [EPB41L3], for which the protein stability index under setting [1] was 2.21 ± 0.24 and the protein stability index under setting [2] stood at 2.12 ± 0.12.
Consider HIDAIILALPEDLQGILLKTGMT [DENND6A], for which the protein stability index by setting is: under setting [3], 2.31 ± 0.59; under setting [4], 2.59 ± 0.67.
As to HITARIESDLTLESLSDEEIHPG [DRICH1], the protein stability index amounted to 4.47 ± 0.23 under setting [3] and 4.38 ± 0.37 under setting [4].
For HLRTHTGERPYKCSECGESFSRSS [ZNF263], the protein stability index by setting is: under setting [1], 3.16 ± 0.19; under setting [2], 3.38 ± 0.55.
Take HLSGSHNTLAPTCFKAKLHRKRGS [RSPH3]: the protein stability index is, setting by setting: under setting [1], 3.67 ± 0.14; under setting [2], 3.77 ± 0.37.
On the same counts, the results for HLSRLCVRHNLGDTRLGQVSALPL [SPSB2] are 2.38 ± 0.14 and 2.54 ± 0.33.
HLVIAEMMELGSRSRGASQKKQKL [FATE1] showed a protein stability index under setting [1] of 3.25 ± 0.14 and a protein stability index under setting [2] of 3.34 ± 0.2.
With HLYIYSIHSIPKGTEITIAFDFDY [KMT2E], the protein stability index is, setting by setting: under setting [1], 3.39 ± 0.45; under setting [2], 3.08 ± 0.33.
Take HNAVTSHQRPGWPGQPHSPFPHPT [NCF4]: the protein stability index amounted to 3.11 ± 0.17 under setting [1] and 3.67 ± 0.21 under setting [2].
For the sequence HQLGFIHRDIKPDNLLLDAKGHVK [STK38L], the protein stability index reads like this: under setting [1], 3.71 ± 0.31; under setting [2], 4.12 ± 0.26.
On the same counts, the results for HQRFLREGRFWKSKNEDRGEEEAE [ZMYND11] are 4.94 ± 0.21 and 5.27 ± 0.2.
On the same counts, the results for HRAHHKFSETHADPHNSRRGFFFS [SCD] are 3.08 ± 0.18 and 3.05 ± 0.3.
For HRLRVQQAALRAARLRHQELFRLR [NOP53], the protein stability index amounted to 2.88 ± 0.23 under setting [1] and 2.87 ± 0.4 under setting [2].
HRSYLGPGSTSPLETSGNPNGRYG [SLC6A17]: the protein stability index runs as follows: under setting [1], 4.27 ± 0.062; under setting [2], 4.26 ± 0.29.
Regarding HSAAYRADPLRVSSRDKLTEMAAS [FUNDC2], the protein stability index under setting [1] was 3.92 ± 0.3 and the protein stability index under setting [2] is 4.23 ± 0.22.
In the case of HSRFVELSEAYRVLSREQSRRSYD [DNAJC4], the protein stability index came out at 3.54 ± 0.23 under setting [1] and 3.7 ± 0.14 under setting [2].
In the case of HTTGPTGSAPNSPMALLTIGSSSE [TFE3], the protein stability index is 4.53 ± 0.12 under setting [1] and 4.54 ± 0.23 under setting [2].
HVQDPQNTVKVQVLYPDGQAQMIH [INTS4]: the protein stability index turned out to be 3.74 ± 0.23 under setting [1] and 3.52 ± 0.29 under setting [2].
Consider HVSPPPSADPARGLPRSRDCRVDL [PDLIM4], for which the protein stability index reads like this: under setting [1], 4.76 ± 0.14; under setting [2], 4.73 ± 0.13.
For HYKKAPIFTSEHGEKLYLVRALQ [NCK2], the protein stability index reads like this: under setting [3], 2.42 ± 0.61; under setting [4], 2.2 ± 0.34.
Regarding ICAAAGRMGATMAAINSIYSNTDA [GLT8D2], the protein stability index was found to be 2.26 ± 0.43 under setting [1] and 2.2 ± 0.34 under setting [2].
On the same counts, the results for IDPRNGIPKLTPGDNPYMYPEQSK [SPATS1] are 4.58 ± 0.13 and 4.5 ± 0.18.
Regarding IDVSKREPPPVKQELPPYNGFGLV [EFHC1], the protein stability index amounted to 3 ± 0.095 under setting [1] and 3.03 ± 0.27 under setting [2].
As for IELNGGQPPLTYKRFQTLISKMEP [CRY1], the protein stability index by setting is: under setting [1], 2.53 ± 0.3; under setting [2], 2.51 ± 0.16.
For the sequence IENIQRVAAGVLCELAQDKEAAEA [CTNNB1], the protein stability index by setting is: under setting [1], 5.08 ± 0.11; under setting [2], 5.1 ± 0.48.
In the case of IHTGERPYKCPECGKSFSRSSHLV [ZNF263], the protein stability index under setting [1] is 2.66 ± 0.45 and the protein stability index under setting [2] worked out at 3.18 ± 0.55.
On the same counts, the results for IIISEPMGYMLFNERMLESYLHAK [CARM1] are 2.66 ± 0.41 and 2.51 ± 0.35.
On the same counts, the results for IIKMATARQETKEMARKVIEHCSN [ZER1] are 2.94 ± 0.35 and 3.08 ± 0.13.
The sequence IINAKSNDGWTPLHVAAHYGRDSF [ASB7] came in with a protein stability index under setting [1] of 2.46 ± 0.24 and a protein stability index under setting [2] of 2.41 ± 0.42.
For IMDANQTYLVSERLEREERNQTQV [FAF2], the protein stability index reads like this: under setting [1], 4.16 ± 0.2; under setting [2], 4.32 ± 0.1.
INCQLSDPSSTKPGTLLKTSPSPE [TRIM14]: the protein stability index reads like this: under setting [1], 4.79 ± 0.3; under setting [2], 4.88 ± 0.31.
As to INVPIRLECVKFASHCLMNHPDLA [PDS5B], the protein stability index amounted to 2.28 ± 0.46 under setting [1] and 2.27 ± 0.17 under setting [2].
For IPEKDMDERRRLLEQKTQESQKKK [ZNF207], the protein stability index worked out at 5.51 ± 0.27 under setting [1] and 5.59 ± 0.11 under setting [2].
As for IPIFNETGRFSFTLPYPVKIKVRF [HACD3], the protein stability index under setting [1] was 2.92 ± 1.2 and the protein stability index under setting [2] came out at 2.77 ± 0.44.
Consider ISNIFSNYFSAMYSSEDSTLASVP [ELF3], for which the protein stability index worked out at 2.2 ± 0.25 under setting [1] and 2.1 ± 0.18 under setting [2].
On the same counts, the results for ISPSTLKNSLFPSPISSISPGLHS [KCNK9] are 2.71 ± 0.56 and 2.76 ± 0.56.
On to ITYQPAASTKMCEQALGKGCGADS [PLK2], for which the protein stability index under setting [1] is 4.06 ± 0.36 and the protein stability index under setting [2] turned out to be 4.44 ± 0.24.
As for IVALYIASGLTGFIGLEVVAQLFN [ATL3], the protein stability index is 3.24 ± 0.094 under setting [1] and 3.31 ± 0.33 under setting [2].
Turning to IVGIVEKGNRTARIIDKPRVIEVL [SEPHS2], the protein stability index is 2.56 ± 0.29 under setting [1] and 2.27 ± 0.49 under setting [2].
With IVGNQVQGAPASSFVYVNPEDGRI [PCDHGC5], the protein stability index is, setting by setting: under setting [1], 3.46 ± 0.073; under setting [2], 3.48 ± 0.21.
Take IVILENIAVAWIYGTKKFMQELTE [SLC6A17]: the protein stability index was determined as 3.05 ± 1 under setting [1] and 2.92 ± 0.2 under setting [2].
On the same counts, the results for IVISYIHVAAAVLRIRSVEGRKKA [OR3A1] are 2.37 ± 0.6 and 2.05 ± 0.21.
For KAEPRLPDRVYIHPDSPATGAHWM [TBX6], the protein stability index runs as follows: under setting [1], 3.09 ± 0.12; under setting [2], 3.23 ± 0.35.
As to KAFRSDSSFNFFVFFFIFFVQDVL [SCAMP3], the protein stability index came to 3.36 ± 0.43 under setting [1] and 3.25 ± 0.17 under setting [2].

The record behind these values is the supplement of paper PMC10567573.
